From patent US20250368978A1, “SQUALENE HOPENE CYCLASE VARIANTS FOR PRODUCING SCLAREOLIDE” (INTERNATIONAL FLAVORS & FRAGRANCES INC., priority 2022, published 2025)
Where a chain is given by its changes, count along the chain named. In names and notes the source's numbering stands.

How the values were obtained:
[1] = SHC variant screening reactions: conversion of HFA to sclareolide by freeze-dried whole cells, GC analysis; type: biochemical, Gluconobacter morbifer; settings: for Fold improvements (sclareolide production): 20 mg/mL HFA, 50% enzyme loading, relative to initial mutant; for Fold improvement (sclareolide production): based on % peak area, relative to V45L+Q54E+I278T+T326S variant, no metal ions
Description: SHC Variant Enzyme Expression. Wild-type and the GmSHC variants of Table 5 were individually cloned into pET28a(+). These DNA constructs were transformed into Lemo21 (DE3) E. coli and plated onto agar plates containing Kanamycin. These were incubated overnight at 37° C. A single bacterial colony was picked and used to inoculate 10 mL LB+Kanamycin in a 50 mL falcon tube. This primary culture was incubated overnight at 37° C. with agitation. These cultures (10 mL) were used to inoculate 1L LB+Kanamycin in a shake flask, which was subsequently incubated at 37° C. at 180 rpm for about 4 hours. Protein expression was then induced with the addition of 0.4 mM IPTG and 0.2 mM L-rhamnose. The incubator temperature was lowered to 25° C. and the cultures further incubated at 180 rpm overnight. The next day, the cultures were centrifuged at 4000 rpm for 10 minutes and the supernatant discarded. Cell pellets were resuspended in 0.1 M Potassium phosphate buffer pH 7.4 and exposed to 1 round of freeze/thawing before lyophilization and then use in the reaction assay.
SHC Variant Screening Reactions. Sodium citrate buffer 0.2 M, pH 5 was prepared and 500 μL of this buffer was added to freeze-dried whole cells of each variant (from 1 L shake flask fermentation of E. coli transformed with desired variant plasmid). The results were obtained with an enzyme loading of 50% (w/w). Subsequently, HFA (20 mg/mL) was added to the buffer/enzyme mix. The reactions were incubated at 25° C. with agitation for 72 hours. To stop the reaction and extract the products, a 2X volume of 3:2, heptane: isopropanol was added to each reaction. These were then incubated at 37° C. for 30 minutes with agitation to mix thoroughly. The reactions were centrifuged for 10 minutes at 4000 rpm to pellet any cellular material. The upper organic layer was then removed and placed in a clean gas chromatography (GC) vial.
GC Analysis Method. A GC analytical method was used to detect each of the starting materials and products used in the screening reactions. Due to the volume of samples generated, a fast method was developed with a run time of only 4.5 minutes.
No metal ions were included in the reaction.
Further analysis was conducted to identify one or more optimal SHC enzymes. In particular, substrate loading was increased to 20 mg/mL and incubation with a reduced enzyme loading (50%).

[2] = Effect of single mutations of GmSHC on activity (site saturation mutagenesis / summary of variants); type: biochemical, Gluconobacter morbifer; settings: single position in GmSHC, SEQ ID NO: 2 numbering
From the text: Three different approaches were taken to generate SHC variants: rational mutagenesis (site-directed mutagenesis), semi-rational mutagenesis (via site-saturation library), and random mutagenesis (error prone PCR). Variants were expressed in a heterologous system and screened by GC.
To improve the conversion of HFA to sclareolide, GmSHC was mutated at one or more of the residues at position 45, 54, 178, 184, 222, 278, 284, 326, 348, 574 and 683 of SEQ ID NO: 2. Silent mutations at positions 249, 348, and 574 identified in an error prone library, were also introduced in the GmSHC of SEQ ID NO: 2.

[3] = 10 mg/mL HFA, 100% enzyme loading

B1: WT: wild-type squalene hopene cyclase from Gluconobacter morbifer, SEQ ID NO: 1 / SEQ ID NO: 2 (protein)
chain: MSPADISTKSSSFQRLDNMLPEAVSSACDWLIDQQKPDGHWVGPVESNACMEAQWCLALWFLGQEDHPLRPRLAQALLEMQREDGSWGIYVGADHGDINTTVEAYAALRSMGYAADMPIMAKSAAWIQQKGGLRNVRVFTRYWLALIGEWPWDKTPNLPPEIIWLPDNFIFSIYNFAQWARATMMPLTILSARRPSRPLLPENRLDGLFPEGRENFDYELPVKGEEDLWGRFFRAADKGLHSLQSFPVRRFVPREAAIRHVIEWIIRHQDADGGWGGIQPPWIYGLMALSVEGYPLHHPVLAKAMDALNDPGWRRDKGDASWIQATNSPVWDTMLAVLALHDAGAEDRYSPQMDKAIGWLLDRQVRVKGDWSIKLPDTEPGGWAFEYANDKYPDTDDTAVALIALAGCRHRPEWRERDIEGAISRGVNWLLAMQSSSGGWGAFDKDNNRSILTKIPFCDFGEALDPPSVDVTAHVLEAFGLLGISRNHPSVQKALAYIRSEQERNGAWFGRWGVNYVYGTGAVLPALAAIGEDMTQPYIVRACDWLMSVQQENGGWGESCASYMDINAVGHGVATASQTAWALIGLLAAKRPKDREAIARGCQFLIERQEDGSWTEEEYTGTGFPGYGVGQAIKLDDPSLPDRLLQGAELSRAFMLRYDLYRQYFPVMALSRARRMMKEDASAAA
modifications: Gluconobacter morbifer
- conversion of HFA to sclareolide [1, 3]: did not show any conversion

B2: V45L + Q54E + V222Q + Y284W + R249R + 1278T + T326S: GmSHC variant with these substitutions relative to SEQ ID NO: 2 (protein)
chain: B1 chain with V45L, Q54E, V222Q, I278T, Y284W, T326S
modifications: Gluconobacter morbifer
- Fold improvements (sclareolide production) [1]: 46.2 Fold

B3: V45L + Q54E + Q178S + V222K + I278S + T326S: GmSHC variant with these substitutions relative to SEQ ID NO: 2 (protein)
chain: B1 chain with V45L, Q54E, Q178S, V222K, I278S, T326S
modifications: Gluconobacter morbifer
- Fold improvements (sclareolide production) [1]: 37.3 Fold

B4: V45L + Q54E + R249R + I278T + T326S + A574A: GmSHC variant with these substitutions relative to SEQ ID NO: 2 (protein)
chain: B1 chain with V45L, Q54E, I278T, T326S
modifications: Gluconobacter morbifer
- Fold improvements (sclareolide production) [1]: 27 Fold

B5: V45L + Q54E + V222K + R249R + I278T + T326S: GmSHC variant with these substitutions relative to SEQ ID NO: 2 (protein)
chain: B1 chain with V45L, Q54E, V222K, I278T, T326S
modifications: Gluconobacter morbifer
- Fold improvements (sclareolide production) [1]: 33.2 Fold

B6: V45L + Q54E + I278T + T326S: GmSHC variant, first mutant enzyme which showed formation of sclareolide (protein)
chain: B1 chain with V45L, Q54E, I278T, T326S
- Fold improvement (sclareolide production) [1, 3]: -0- Fold
- Fold improvements (sclareolide production) [1]: 0 Fold

B7: V45L + Q54E + V222Q + R249R + I278T + T326S: GmSHC variant with these substitutions relative to SEQ ID NO: 2 (protein)
chain: B1 chain with V45L, Q54E, V222Q, I278T, T326S
modifications: Gluconobacter morbifer
- Fold improvement (sclareolide production) [1, 3]: 3.9 Fold
- Fold improvements (sclareolide production) [1]: 30.3 Fold

B8: Q178S: GmSHC mutation Q178S selected by site-saturation mutagenesis (protein)
chain: B1 chain with Q178S
modifications: Gluconobacter morbifer
notes: GmSHC mutation Q178S selected by site-saturation mutagenesis
- effect of mutation on activity [2]: improving activity

B9: V45L + Q54E + V222K + I278S + T326S: GmSHC variant with these substitutions relative to SEQ ID NO: 2 (protein)
chain: B1 chain with V45L, Q54E, V222K, I278S, T326S
modifications: Gluconobacter morbifer
- Fold improvement (sclareolide production) [1, 3]: 7.4 Fold
- Fold improvements (sclareolide production) [1]: 28.4 Fold

B10: V45L + Q54E + V222K + I278A + T326S: GmSHC variant with these substitutions relative to SEQ ID NO: 2 (protein)
chain: B1 chain with V45L, Q54E, V222K, I278A, T326S
modifications: Gluconobacter morbifer
- Fold improvements (sclareolide production) [1]: 20.4 Fold

B11: V45L + Q54E + R249R + I278T + T326S: GmSHC variant with these substitutions relative to SEQ ID NO: 2; R249R is a silent mutation (protein)
chain: B1 chain with V45L, Q54E, I278T, T326S
modifications: Gluconobacter morbifer
notes: R249R is a silent mutation
- Fold improvement (sclareolide production) [1, 3]: 4.2 Fold
- Fold improvements (sclareolide production) [1]: 7 Fold

B12: V45L + Q54E + V222R + I278T + T326S + R348R: GmSHC variant with these substitutions relative to SEQ ID NO: 2 (protein)
chain: B1 chain with V45L, Q54E, V222R, I278T, T326S
modifications: Gluconobacter morbifer
- Fold improvements (sclareolide production) [1]: 60 Fold

B13: V45L + Q54E + Q178S + V222R + 1278T + T326S: GmSHC variant with these substitutions relative to SEQ ID NO: 2 (protein)
chain: B1 chain with V45L, Q54E, Q178S, V222R, I278T, T326S
modifications: Gluconobacter morbifer
- Fold improvements (sclareolide production) [1]: 43.8 Fold

B14: V45L + Q54E + R249R + I278A + T326S: GmSHC variant with these substitutions relative to SEQ ID NO: 2 (protein)
chain: B1 chain with V45L, Q54E, I278A, T326S
modifications: Gluconobacter morbifer
- Fold improvements (sclareolide production) [1]: 25.6 Fold

B15: V45L + Q54E + V222Q + R249R + I278T + T326S + A683E: GmSHC variant with these substitutions relative to SEQ ID NO: 2 (protein)
chain: B1 chain with V45L, Q54E, V222Q, I278T, T326S, A683E
modifications: Gluconobacter morbifer
- Fold improvements (sclareolide production) [1]: 44.6 Fold

B16: V45L + Q54E + V222K + I278T + T326S: GmSHC variant with these substitutions relative to SEQ ID NO: 2 (protein)
chain: B1 chain with V45L, Q54E, V222K, I278T, T326S
modifications: Gluconobacter morbifer
- Fold improvement (sclareolide production) [1, 3]: 5.4 Fold
- Fold improvements (sclareolide production) [1]: 12 Fold

B17: V45L + Q54E + V222R + I278T + T326S: GmSHC variant with these substitutions relative to SEQ ID NO: 2 (protein)
chain: B1 chain with V45L, Q54E, V222R, I278T, T326S
modifications: Gluconobacter morbifer
- Fold improvement (sclareolide production) [1, 3]: 4.2 Fold
- Fold improvements (sclareolide production) [1]: 27 Fold

B18: V45L + Q54E + M184T + R249R + I278T + T326S: GmSHC variant with these substitutions relative to SEQ ID NO: 2 (protein)
chain: B1 chain with V45L, Q54E, M184T, I278T, T326S
modifications: Gluconobacter morbifer
- Fold improvement (sclareolide production) [1, 3]: 3.3 Fold
